Tests used:
human C1q (Sigma C0660) = molecular target: T1, human C1q (Sigma C0660) (human, UniProt P02745 23-245; P02746 28-253; P02747 29-245); assay: C1q ELISA on CD2, purified
T1 construct: Bought protein; also called complement protein C1q
Method: The C1q binding assay was performed by coating 96 well Maxisorb ELISA plates (Nalge-Nunc Rochester, N.Y., USA) with 50 μl recombinant soluble human CD2 at 10 μg/ml overnight at 4° C. in PBS. The wells were aspirated and washed three times with wash buffer (PBS, 0.05% Tween 20) and blocked for >1 h with 200 μ/well of block/diluent buffer (0.1 M Na₂HPO₄, pH 7, 0.1 M NaCl, 0.05% Tween 20, 0.1% gelatin). The antibody to be tested was diluted in block/diluent buffer starting at 15 μg/ml with 3-fold dilutions. 50 μl were added per well, and the plates incubated for 2 h at room temperature. After aspirating and washing as above, 50 μl/well of 2 μg/ml of Sigma human C1q (C0660) diluted in block/diluent buffer was added and incubated for 1.5 h at room temperature. After aspirating and washing as above, 50 μl/well of chicken anti human C1q (Cedarlane laboratories CL2101AP), diluted 2,000-fold in block/diluent buffer, was added. After incubation for 1.5 h at room temperature, the wells were aspirated and washed as above. 50 μl/well of donkey F(ab′)₂ anti chicken IgY HRP conjugate (Jackson ImmunoResearch 703-036-155) diluted to 1:5,000 in block/diluent was then added, and the wells incubated for 1 h at room temperature. After aspirating and washing as above, 100 μl TMB substrate (420 μM TMB, 0.004% H₂O₂ in 0.1 M sodium acetate/citric acid buffer, pH 4.9) was added and incubated for 2 min before the reaction was stopped with 100 μl 2 N sulfuric acid. The absorbance was read at 450 nm with a Softmax P instrument, and Softmax software was used to determine the relative binding affinity (C value) with a 4-parameter fit.

[1] = molecular target: T2, human FcγRI (CD64) on IFNγ-activated U937 cells (human, UniProt P12314 16-374); assay: CD64 bridging assay, purified
T2 construct: whole, on cells; also called FcγR1

[2] = molecular target: T3, human FcγRIII (CD16), CD16a (F158), on CD16-transfected Jurkat cells (human, UniProt P08637 17-254); assay: CD16 bridging assay, purified
T3 construct: whole, on cells

[3] = molecular target: T4, GST-tagged FcγRIII, CD16a (V158) (UniProt P08637 17-208, limits assumed); assay: AlphaScreen competition vs huIgG1 beads, purified
T4 construct: the canonical entry carries F there; Captured by biotinylated anti-GST mAb on streptavidin donor beads; also called GST-FcγRIII; not shown: GST tag
Method: The relative binding affinities to FcγRIII (CD16), of the variant antibodies, was determined using an AlphaScreen assay (Amplified Luminescent Proximity Homogeneous Assay, PerkinElmer, MA, USA). Laser excitation of a donor bead excites oxygen, which if in close proximity to an acceptor bead generates a cascade of chemiluminescent events, ultimately leading to fluorescence emission at 520-620 nm. […] The reaction was carried out for one hour in a 25 μl volume and plates were read in the Fusion Alpha reader (PerkinElmer).

[4] = molecular target: T3, human FcγRIII (CD16), CD16a (F158), on …; assay: CD16 bridging assay, transient

T4 sequence (P08637 17-208 F176V limits assumed): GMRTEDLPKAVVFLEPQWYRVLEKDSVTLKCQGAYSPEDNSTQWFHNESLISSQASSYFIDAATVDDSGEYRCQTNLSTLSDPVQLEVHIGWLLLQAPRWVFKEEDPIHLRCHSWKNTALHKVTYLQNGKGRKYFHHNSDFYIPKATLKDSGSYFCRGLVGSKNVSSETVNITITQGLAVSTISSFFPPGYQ
T3 sequence (P08637 17-254): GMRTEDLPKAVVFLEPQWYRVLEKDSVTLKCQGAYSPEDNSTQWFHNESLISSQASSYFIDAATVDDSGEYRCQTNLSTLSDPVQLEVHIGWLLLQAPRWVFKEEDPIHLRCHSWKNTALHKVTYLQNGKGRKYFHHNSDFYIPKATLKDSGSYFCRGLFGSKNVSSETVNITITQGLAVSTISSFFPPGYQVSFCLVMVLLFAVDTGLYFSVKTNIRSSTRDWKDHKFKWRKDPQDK
T1 sequence (P02745 23-245 limits assumed, chain 1 of 3): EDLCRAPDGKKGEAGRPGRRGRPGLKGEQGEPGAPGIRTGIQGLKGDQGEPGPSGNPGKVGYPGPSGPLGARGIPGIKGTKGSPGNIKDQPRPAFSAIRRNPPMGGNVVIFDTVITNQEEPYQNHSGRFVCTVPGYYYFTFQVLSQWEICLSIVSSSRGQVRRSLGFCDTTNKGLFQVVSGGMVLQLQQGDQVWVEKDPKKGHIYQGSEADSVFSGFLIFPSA
T1 sequence (P02746 28-253 limits assumed, chain 2 of 3): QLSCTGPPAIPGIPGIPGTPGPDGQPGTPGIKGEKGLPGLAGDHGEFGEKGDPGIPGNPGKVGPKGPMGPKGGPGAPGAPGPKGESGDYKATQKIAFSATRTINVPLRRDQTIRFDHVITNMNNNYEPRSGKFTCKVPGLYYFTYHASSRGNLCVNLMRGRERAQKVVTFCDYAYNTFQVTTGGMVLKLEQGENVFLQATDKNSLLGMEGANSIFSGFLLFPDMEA
T1 sequence (P02747 29-245 limits assumed, chain 3 of 3): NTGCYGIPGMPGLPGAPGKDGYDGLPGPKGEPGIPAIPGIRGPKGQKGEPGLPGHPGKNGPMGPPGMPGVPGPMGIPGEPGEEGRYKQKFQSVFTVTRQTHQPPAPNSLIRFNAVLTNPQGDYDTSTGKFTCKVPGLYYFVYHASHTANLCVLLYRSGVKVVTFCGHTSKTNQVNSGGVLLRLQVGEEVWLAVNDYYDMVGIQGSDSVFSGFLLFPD
T2 sequence (P12314 16-374): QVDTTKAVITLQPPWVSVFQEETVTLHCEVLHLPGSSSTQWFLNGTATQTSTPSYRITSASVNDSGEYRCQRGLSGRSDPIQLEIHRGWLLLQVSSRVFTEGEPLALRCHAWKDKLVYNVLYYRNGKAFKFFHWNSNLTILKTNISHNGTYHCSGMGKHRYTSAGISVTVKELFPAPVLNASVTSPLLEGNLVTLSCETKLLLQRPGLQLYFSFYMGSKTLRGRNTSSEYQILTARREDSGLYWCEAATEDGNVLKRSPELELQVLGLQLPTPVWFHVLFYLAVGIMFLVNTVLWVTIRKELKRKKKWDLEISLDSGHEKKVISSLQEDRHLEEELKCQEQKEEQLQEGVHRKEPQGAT

Row | Binder | binding result (human C1q (Sigma C0660)) | binding result [1] | fold decrease in binding vs WT [2] [fold] | fold decrease in binding vs WT (human C1q (Sigma C0660)) [fold] | fold increase in binding vs WT [3] [fold] | fold increase in binding vs WT [2] [fold] | fold increase in binding vs WT [4] [fold] | fold decrease in binding vs WT [4] [fold]
1 | chCB6-huIgG1 I332H (antibody, name in EU numbering, copies: 2 + 2) heavy: not shown light: QIVLTQSPAIMSASPGEKVTMTCRASSSVSHMHWYQQKSGTSPKRWIYDTSKLASGVPARFSGSGSGTSYSLTISSVEAEDAATYYCQQWSSNPLTFGAGTKLELKRTVAAPSVFIFPPSDEQLKSGTASVVCLLNNFYPREAKVQWKVDNALQSGNSQESVTEQDSKDSTYSLSSTLTLSKADYEKHKVYACEVTHQGLSSPVTKSFNRGEC | binds | binds | 2 |  |  |  |  | 
2 | chCB6-huIgG1 S239D (antibody, name in EU numbering, copies: 2 + 2) heavy: not shown light: QIVLTQSPAIMSASPGEKVTMTCRASSSVSHMHWYQQKSGTSPKRWIYDTSKLASGVPARFSGSGSGTSYSLTISSVEAEDAATYYCQQWSSNPLTFGAGTKLELKRTVAAPSVFIFPPSDEQLKSGTASVVCLLNNFYPREAKVQWKVDNALQSGNSQESVTEQDSKDSTYSLSSTLTLSKADYEKHKVYACEVTHQGLSSPVTKSFNRGEC |  | binds |  | 2 | 9 | 6 | 6 | 
3 | chCB6-huIgG1 I332D (antibody, name in EU numbering, copies: 2 + 2) heavy: not shown light: QIVLTQSPAIMSASPGEKVTMTCRASSSVSHMHWYQQKSGTSPKRWIYDTSKLASGVPARFSGSGSGTSYSLTISSVEAEDAATYYCQQWSSNPLTFGAGTKLELKRTVAAPSVFIFPPSDEQLKSGTASVVCLLNNFYPREAKVQWKVDNALQSGNSQESVTEQDSKDSTYSLSSTLTLSKADYEKHKVYACEVTHQGLSSPVTKSFNRGEC | binds | binds |  |  | 4 | 9 | 15 | 
4 | chCB6-huIgG1 S239E (antibody, name in EU numbering, copies: 2 + 2) heavy: not shown light: QIVLTQSPAIMSASPGEKVTMTCRASSSVSHMHWYQQKSGTSPKRWIYDTSKLASGVPARFSGSGSGTSYSLTISSVEAEDAATYYCQQWSSNPLTFGAGTKLELKRTVAAPSVFIFPPSDEQLKSGTASVVCLLNNFYPREAKVQWKVDNALQSGNSQESVTEQDSKDSTYSLSSTLTLSKADYEKHKVYACEVTHQGLSSPVTKSFNRGEC |  | binds |  | 2 | 8 | 3 | 4 | 

Other lines, results leading:

Row | binding result (human C1q (Sigma C0660)) | binding result [1] | fold decrease in binding vs WT [2] [fold] | fold decrease in binding vs WT (human C1q (Sigma C0660)) [fold] | fold increase in binding vs WT [3] [fold] | fold increase in binding vs WT [2] [fold] | fold increase in binding vs WT [4] [fold] | fold decrease in binding vs WT [4] [fold] | Binder
5 | binds | binds |  |  |  | 2 | 2 |  | chCB6-huIgG1 I332Q (antibody, name in EU numbering, copies: 2 + 2) heavy: not shown light: QIVLTQSPAIMSASPGEKVTMTCRASSSVSHMHWYQQKSGTSPKRWIYDTSKLASGVPARFSGSGSGTSYSLTISSVEAEDAATYYCQQWSSNPLTFGAGTKLELKRTVAAPSVFIFPPSDEQLKSGTASVVCLLNNFYPREAKVQWKVDNALQSGNSQESVTEQDSKDSTYSLSSTLTLSKADYEKHKVYACEVTHQGLSSPVTKSFNRGEC
6 | no binding | binds | 2 |  |  |  |  | 3 | chCB6-huIgG1 L328Q (antibody, name in EU numbering, copies: 2 + 2) heavy: not shown light: QIVLTQSPAIMSASPGEKVTMTCRASSSVSHMHWYQQKSGTSPKRWIYDTSKLASGVPARFSGSGSGTSYSLTISSVEAEDAATYYCQQWSSNPLTFGAGTKLELKRTVAAPSVFIFPPSDEQLKSGTASVVCLLNNFYPREAKVQWKVDNALQSGNSQESVTEQDSKDSTYSLSSTLTLSKADYEKHKVYACEVTHQGLSSPVTKSFNRGEC
